Paper PMC3482686

Target: AEBP2 (shorter isoform) (human)
Experiment: negative-stain EM 3D reconstruction with localisation of MBP and GFP tags; purified PRC2-AEBP2 complex mildly cross-linked with 0.015% glutaraldehyde, stained with 2% uranyl formate; random conical tilt and projection matching, 21 Å; tags located in reference-free 2D class averages

Substance: EED (from UniProt O75530 1-441) (natural protein)
- stoichiometry N: 1

Substance: Ezh2 (from UniProt Q15910-2 1-751) (enzyme)
- stoichiometry N: 1
